In the supplement of paper PMC9112550, “Optimization of the antimicrobial peptide Bac7 by deep mutational scanning” (BMC Biology, 2022):

Each sequence was assayed on Escherichia coli TOP10 (assay: shrunken log2 fold change of peptide-encoding DNA abundance (4.5 h post-induction vs induction); higher = less antimicrobial activity (less host growth inhibition)). Conditions: time post-induction: 4.5 h; library: site-saturation at positions 5, 18, 19, 20.
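Further: peptides expressed intracellularly from a pBAD plasmid library in pooled LB shake-flask culture, induced with 0.3% L-arabinose, DNA abundance read by NGS, three biological replicates, DESeq2 with apeglm shrinkage.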

Row | Sequence | shrunken log2 fold change
1 | RRIRGRPPRLPRPRPRPWVTPRP | 0.0039
2 | RRIRGRPPRLPRPRPRPWWFPRP | -0.03
3 | RRIRGRPPRLPRPRPRPWWRPRP | 0.626
4 | RRIRGRPPRLPRPRPRPYAKPRP | -0.0213
5 | RRIRGRPPRLPRPRPRPYEFPRP | -0.0878
6 | RRIRGRPPRLPRPRPRPYFQPRP | -0.161
7 | RRIRGRPPRLPRPRPRPYFVPRP | 0.0122
8 | RRIRGRPPRLPRPRPRPYGHPRP | 0.323
9 | RRIRGRPPRLPRPRPRPYGIPRP | -0.165
10 | RRIRGRPPRLPRPRPRPYGNPRP | -0.102
11 | RRIRGRPPRLPRPRPRPYHWPRP | -0.407
12 | RRIRGRPPRLPRPRPRPYINPRP | -0.151
13 | RRIRGRPPRLPRPRPRPYIVPRP | 0.0237
14 | RRIRGRPPRLPRPRPRPYIYPRP | -0.13
15 | RRIRGRPPRLPRPRPRPYLRPRP | -0.0169
16 | RRIRGRPPRLPRPRPRPYMMPRP | -0.232
17 | RRIRGRPPRLPRPRPRPYMQPRP | -0.212
18 | RRIRGRPPRLPRPRPRPYQAPRP | -0.119
19 | RRIRGRPPRLPRPRPRPYQFPRP | -0.297
20 | RRIRGRPPRLPRPRPRPYQIPRP | -0.118
21 | RRIRGRPPRLPRPRPRPYRCPRP | -0.00655
22 | RRIRGRPPRLPRPRPRPYRQPRP | -0.401
23 | RRIRGRPPRLPRPRPRPYRSPRP | -0.113
24 | RRIRGRPPRLPRPRPRPYRTPRP | -0.108
25 | RRIRGRPPRLPRPRPRPYSCPRP | 0.131

Row | Sequence | shrunken log2 fold change
26 | RRIRGRPPRLPRPRPRPYTEPRP | -0.0586
27 | RRIRGRPPRLPRPRPRPYVDPRP | -0.0322
28 | RRIRGRPPRLPRPRPRPYVIPRP | -0.0899
29 | RRIRGRPPRLPRPRPRPYVQPRP | -0.122
30 | RRIRGRPPRLPRPRPRPYWCPRP | -0.0844
31 | RRIRGRPPRLPRPRPRPYWEPRP | -0.0842
32 | RRIRGRPPRLPRPRPRPYWPPRP | 0.0961
33 | RRIRGRPPRLPRPRPRPYWWPRP | -0.0995
34 | RRIRGRPPRLPRPRPRPYYKPRP | -0.607
35 | RRIRHRPPRLPRPRPRPACIPRP | -0.132
36 | RRIRHRPPRLPRPRPRPACMPRP | 0.0463
37 | RRIRHRPPRLPRPRPRPAEIPRP | 0.000898
38 | RRIRHRPPRLPRPRPRPAETPRP | -0.074
39 | RRIRHRPPRLPRPRPRPAFKPRP | -0.0994
40 | RRIRHRPPRLPRPRPRPAFMPRP | -0.193
41 | RRIRHRPPRLPRPRPRPAGGPRP | -0.131
42 | RRIRHRPPRLPRPRPRPAGSPRP | -0.0875
43 | RRIRHRPPRLPRPRPRPAHFPRP | 0.165
44 | RRIRHRPPRLPRPRPRPAHNPRP | -0.366
45 | RRIRHRPPRLPRPRPRPAHQPRP | 0.0515
46 | RRIRHRPPRLPRPRPRPAHTPRP | -0.199
47 | RRIRHRPPRLPRPRPRPAIGPRP | -0.0264
48 | RRIRHRPPRLPRPRPRPALSPRP | -0.257
49 | RRIRHRPPRLPRPRPRPAMHPRP | 0.0521
50 | RRIRHRPPRLPRPRPRPANHPRP | -0.262

Row | Sequence | shrunken log2 fold change
51 | RRIRHRPPRLPRPRPRPANMPRP | -0.126
52 | RRIRHRPPRLPRPRPRPAPQPRP | 0.588
53 | RRIRHRPPRLPRPRPRPAQAPRP | 0.183
54 | RRIRHRPPRLPRPRPRPAQFPRP | -0.0111
55 | RRIRHRPPRLPRPRPRPARDPRP | 0.147
56 | RRIRHRPPRLPRPRPRPARHPRP | 0.293
57 | RRIRHRPPRLPRPRPRPARIPRP | 0.0499
58 | RRIRHRPPRLPRPRPRPASDPRP | -0.0278
59 | RRIRHRPPRLPRPRPRPASQPRP | 0.045
60 | RRIRHRPPRLPRPRPRPASWPRP | 0.305
61 | RRIRHRPPRLPRPRPRPATPPRP | 0.299
62 | RRIRHRPPRLPRPRPRPATSPRP | -0.00994
63 | RRIRHRPPRLPRPRPRPAWFPRP | 0.211
64 | RRIRHRPPRLPRPRPRPAWVPRP | 0.15
65 | RRIRHRPPRLPRPRPRPAYNPRP | -1.04
66 | RRIRHRPPRLPRPRPRPCAIPRP | -0.303
67 | RRIRHRPPRLPRPRPRPCAPPRP | 0.0642
68 | RRIRHRPPRLPRPRPRPCCTPRP | -0.181
69 | RRIRHRPPRLPRPRPRPCCWPRP | 0.015
70 | RRIRHRPPRLPRPRPRPCDAPRP | -0.0305
71 | RRIRHRPPRLPRPRPRPCDCPRP | -0.138
72 | RRIRHRPPRLPRPRPRPCDTPRP | -0.214
73 | RRIRHRPPRLPRPRPRPCEEPRP | 0.0167
74 | RRIRHRPPRLPRPRPRPCFNPRP | -0.588
75 | RRIRHRPPRLPRPRPRPCGEPRP | -0.0851
